Measurements published in the DeepSol protein solubility set.

Assay: soluble on expression in E. coli; label from the status in PepcDB or PDB records
For “MSPESSNQTTSLSSFLLKCAFPDGTVPINIAPQSLSLSSSPGSYDGDQFSPLMKQHKSRKYDSCTISDDLHDEMKRLKKKEEAFKTALCGFQRRGQKCIYGEQCKFAHSVHELRFTQAKKTHRNYKTVLCDKFSTTGYCKYGARCQFIHRALGSTSTTESAEMADFKLNVESDLSRAFALDYTSFLPNWHCSALLH”, the “soluble on expression in E. coli” value was “not soluble”. In the case of “MITLHTNFGDIKIQLNFEKAPVTSANFEQYCREGFYDNTLFHRVIDGFMIQGGGMTSGLREKETRDPIRNEANNGLSNKVGTIAMARTMDPHSASSQFFINVNNNTFLDFRSESRDGWGYCVFGEVVEGMDIVNKIKGVSTGSYGMHQDVPLEEVVITGTTIEA”, the “soluble on expression in E. coli” value is reported as “not soluble”. For “MGSDKIHHHHHHMNQMQQWKPDFLGEGYQNLTIELGDDPDNETDVVTTVVRYNPDNHADESFAARPALLWVHGMTDYFFHTEFAEFFHNAGFAVYGIDLRKCGRSYRPGQQWHYTSDLAHYFPDLTAAAEVISSTHPELVPVAHSTGGLIVPLWMSQMRTSNPAAIEKIPALVLNSPWLDMMYPPLFIKLITPMVRVLGKRSPTTIIPGGGLGAYGKSIHKNFYGEWDFDTTIKPVEGHKKSIGWLRAVMAGQAEIHHDHVNVGVDVLTLCSNKSWLKSEYTEDTNTSDAVLDVKHIQKWAPHLSSPSSRVDVEIIDNARHDIFLSRKPARDHASEVLNNWLQSKLSSLKPSQ”, the “soluble on expression in E. coli” value was “not soluble”. With “MSLSQGALYLVPTPIGNLEDMTFRAIRMLKEADIIAAEDTRNTVKLLNHFEITTRMTSYHQFTKENKEDNIIQRMLDGEVVALVSDAGMPSISDPGYELVQSALNANIPVIPLPGANAALTALIASGLAPQPFYFYGFLPRQNKERTQAIEKLAAREETWILYESPHRLKETLKAIIKITGNDRKIVLCRELTKRFEEFLRGTVEDALNWAMDEEVRGEFCLIIEGNANPPLAEEQLWWQELDIKTHVSTVMEQENVSSKDAIKTVMKARNLPKREVYSAYHEIKEGHHHHHH” the “soluble on expression in E. coli” value was “soluble”. With “MSIMKQRLPLGEFSSSKINKLAIANIADASEPRNHGENNVGTVCLPSIKSLMVSPEVYENTKSLPVPLMRSSGGGMACASKSSCQDGISTKTTSRDYSELSKKLQIRLQFAYYKYKTKQTDKNFTDLKSKHSITRPSKVATHSKSEPLTRRRKLVLSQGHYKTPARSKIKTPSSICSHDNTSSFTSFRGVSESSSTTADMNVADTTTPIRNNINTKHSNSHNRTLYQRQETPTSIKAAKSLIHLFTSNQ” the “soluble on expression in E. coli” value was “not soluble”. With “MGSDKIHHHHHHMSGTAEVNPITVDVYLDITVENISTLKDLTVKFDNYDEDLHYVKEVTDNSVKVDGIIPGIYSVTVSGTAIDTENNEYYINGNSVNAALFKHGSALNIEVQGLKVSPLIFKEIYYCGSRPEKGGVYFRDQFYEIYNNSADILYLDGIYFANLTPGTATTKLPIWPEADGNNYAYGERVWKFPGNGTEYPLAPGESCIISQFAANHQLDIYNPQSPIDGSSSEFEFNMNNPNFPDQAAYDMQHVFYQGKAEMGSIPQYLTSVFGGAYVIFRVPEGEAWDPVNDENMKTTDLSKPNSNVYYAKIPIKYVLDAVEAVNNESKMNAKRVPGVLDAGITWVGATYCGLGIARKLSTDEEGNPIIREETGTYIYQDTNNSTDDFERGVVPVMRRNGAKMPSWNHTL” the “soluble on expression in E. coli” value was “not soluble”. In the case of “MNSEIELPVQKQLEAYNARDIDAFMAWWADDCQYYAFPATLLAGNAAEIRVRHIERFKEPDLYGELLTRVIVGNVVIDHETVTRNFPEGKGEVDVACIYEVENGRIAKAWFKIGEPRIVSQKS”, the “soluble on expression in E. coli” value is reported as “soluble”. In the case of “MFTAKLIKGKTYNVMGITFRAGVSQTVPKKLYEYLNENPYFILTQELNNQKDDPINYTESELKGMNKAEHESIISNLGRNPSDFKNADERIAYILKQIDNKGELEHHHHHH”, the “soluble on expression in E. coli” value is reported as “soluble”. For “MKKLLFFTLLLFGVLSVRSLADGCNAQVCMCPNGGYVTTGQYCSTSSGESWIITPIIGTVAIDPATGKWASISNTKDRKEAKNDVLERCGSDCKVFMVDSKRCVGVAYSKSDKIIGSDSATDNFGGIGYNTRVERSNEKALKKCEKNGGKDCKIIANVCAVEGTTKY”, the “soluble on expression in E. coli” value was “not soluble”. With “MEAVVVEREAKGMKEIAIQEKDLTLQWRGNTGKLVKVRLKNTRAMEMWYNKQITEENIQEITTLNIIKNGKSLALEVYPEKSIYVKPNLGRINVPVFFIKTPINRGVFEEIFGETLKA” the “soluble on expression in E. coli” value was “soluble”. With “MARLSGILADSDIQALIDNNFLKALWPFDAAQIQPASLDLRLGEKAYRIRASFMPGADVRVLDKLERLKLHEFDLRDGAVLETGCVYIVPLLENLALPEILSAIANPKSSTGRLDIFTRVITDNAQEFDKICVGYHGPLYLEISPRTFPILVRTGSRLFQLRFRKGHSYLNEIELHALHRDETLISDDLPNISAGGIGLSINLKGDENGLVGYRGKRHTSVIDIDKHAVANILDFWEPLFDRGQRELILDPDEFYILVSRESVHVPPLYAAEMTPFDPLVGEFRVHYAGFFDPGFGHMEAGGKGARAVLEVRSHEVPFILEHGQIIGRLVYEQMLKRPLALYGEDSGSHYQAQGLKLSKHFR” the “soluble on expression in E. coli” value was “not soluble”. In the case of “MGSDKIHHHHHHMWITINRNSNISLSRQIYCEIKDMILDGSLKFEQKLPSSRTLSKELSVSRNTVLDAYNQLIAEGYLETRNGYGTIVAKGISGHKVDFKLNDTFRDEKDLHTNKQKNYIDFRSGVPELKLFPRKELSKLYKQILYDLSDSDFRYGSTAGVWVLRVEISKYLFRTRGIRCNPKNIMIVSGSTQGLSLISQLLYKSNKKVAVEDPIHKGLLKVISSIGYSVVGIKVDDKGMNTNLIKSIKGISFVYTTPSHQYPLGGILPIQRRLELIKCATENDYYIIEDDYDSEFRYEGQPISSLYELSPNKVIYIGSFSKILSPAIRVGFMLLPDNILESYKTLKMYSDVHTETILQHVLAEFIGNGGLEKYIFRMKKLYNRKRKYLIKVLNTEFKNEFKIKGEAAGLHIVAHFYNVKFTESLIHKIFEAGIKVYPIQQYAIENILEYDHEIILGYAHLSFDEIEKGVKILSKIIHMNQGT”, the “soluble on expression in E. coli” value is reported as “not soluble”. With “MGSDKIHHHHHHMQNLPIYLYPNTLDVILDSGATTKGVNRVMYQHELKIQKGIKNKVRIQFKNSDQKRIVTSGTYVFSMYDAINQRLLLEKPLDILDDGTTFALRGLAELTLTENDTMDLDVSKYQFSVKYLDEDGTYLPTYSNTYYGVTGTLNLLQDVYPVLQPSQEITSFDRTYDDSIQLYQWRSGNIYATPEFNGNSALHTIAMYMTGFKGKVLVQGTLYNTPSSFNRYVTLGRKRV” the “soluble on expression in E. coli” value was “not soluble”. With “MKFLLLLFPVLLLAKSPEKRSKVGIDEDNFLQLLEVEIARTLRSELSSDDDLQNLEGSSDSPEDDYLKKYDLILSSSTTSPKPITTTETTTRSTTTTTTTTTTTAAPSTTTSTVKITPKPLRSTPQCVPEKDCYKDSECPSGKCFGSELGLCDCNACITNKKCSSDLDCGGLRNGCDSNGNCDCVNAFHSHGYKLFVKVLLTFCHQTKCTKTSDNCYGLPCRVGKCKCFVGSLSVVTMCSRVLFVLLSTFTVLAGASVTCDLTQKPSTWAQVHAKNIFFNAYEPDNYFSLNGFCVNNDFMSHTLTYSSHVKLADSSVKVKTDVALNTNFDASLSNCGKDVSQVQWCQSHCQDKTLENVIVSSAVINGSLPLALAQQVFSTIGSPNDTSIASMQVDLNSQGVRIDYDYYDDFNFCSVYVKVKRPSMFPYALFITVQKIVGV” the “soluble on expression in E. coli” value was “not soluble”. For “MRSQDKYERFIQLLAHEFFHLWNVKRIRPQALEVFNYDQENYTPSLWFCEGTTSYYDLLIPLRAGIYDAKTYLNYWSKEISRLITTPGRKVQPLSESSFDAWIKLYRPDTNTGNSQVSYYLKGELEHHHHHH”, the “soluble on expression in E. coli” value was “not soluble”. In the case of “MCQMPCQFSWPYTHYFTQTKNKEKILNKLIVFTGGPGAGKTSVIEQLKTQGFICAPETGRHVIQMQVANHGSALPWNDKQAFRDEMTKEEVSNYRSFNVRQGDVFFDRSIVDVYGYSKLEQLPISHELITHCQTLRYHSQVFIFPPWASIFSNDEERKQDFSEAVATYQQMVDAYHKFGYQLIEVPKMSVEDRVAFILGSVIELEHHHHHH”, the “soluble on expression in E. coli” value is reported as “soluble”. With “RLKNPKIKQGGEWMDVDWKTALEYVRSAIECIAKDGNQNQVGVWANPMNTVEELYLAKKFADGLGVKNFATRLRQQDKRLSDGLKGAQWLGQSIESLADNDAVLVVGANLRKEQPLLTARLRRAAKDRMALSVLAGSKEELFMPLLSQEAAHPDEWAGRLKNLSADAEHAVTASLKNAEKAAVILGAEVQNHPDYAAIYAAAQELADATGAVLGILPQAANSVGADVLGVNSGESVAEMANTPKQAVLLLNVEPEIDTVDGAKAVAALKQAKSVMAFTPFVSETLLDVCDVLLPIAPFTETSGSFINMEGRLQSFHGVVQGFGDSRPMWKVLRVLGNLFDLKGFEYHDTAAILKDALD” the “soluble on expression in E. coli” value was “not soluble”. In the case of “MGSDKIHHHHHHMNKKPLVSVYIPTHNRAELLSNAVKSVINQTYKNIEIIICNDGSGDNTDDVVNKLQKEYKDIPFVYLKNDSPMGACFSRNRCIAAASGYYLTGLDDDDYFLPNRIESLIKVCNERKIDLVCSNLIFKDGNKLKRGKNNSGVITSIDMGYENLVGNQLLTRLSYFEDVGGFDTNFPAWQDYDLWYRIIMKFGPCIKTNEATYVMDVENDRKRISTSSKAHIGYRSFIEKHSETLSEEMKSSLFIRDLINRNKKIPLKTLLSSGRKVASFKHNMRLCFPVVNSIAAFVREIKK”, the “soluble on expression in E. coli” value is reported as “not soluble”. In the case of “VAKMRFIDIGANLLDEMYTGQYNDKPYHPPDLSAVLERAWAAGLEKLMITAGSLKEARAALELAKTDERLYCTVGCHPTRCKEFEDHPGGPEAYLQELLEVLKEGQALGKVVAVGECGLVATDYERLHFCDADTQKKYFEAQFRLAKESGLPMFLHLRAAADDFLDITGRHLGDFPRGGVVHSFDGTAEEAARVLAVPQLAIGINGCSLKTDDNLAVVGGLPLERIMLETDCPWCEIRPTHAGRKHVSAEALAGVTGAKDRKKFMPGCQVKSRNEPANIRQVLEVVAGVKGRTDLEAVADVIFGNTERMFFPTA”, the “soluble on expression in E. coli” value is reported as “not soluble”. For “MGSDKIHHHHHHMIFYCALSIGRVFSATIKTCPNVHQVHHVVLTIEMSINMQNNEQTEYKTVRGLTRGLMLLNMLNKLDGGASVGLLAELSGLHRTTVRRLLETLQEEGYVRRSPSDDSFRLTIKVRQLSEGFRDEQWISALAAPLLGDLLREVVWPTDVSTLDVDAMVVRETTHRFSRLSFHRAMVGRRLPLLKTASGLTWLAFCPEQDRKELIEMLASRPGDDYQLAREPLKLEAILARARKEGYGQNYRGWDQEEKIASIAVPLRSEQRVIGCLNLVYMASAMTIEQAAEKHLPALQRVAKQIEEGVESQAILVAGRRSGMHLR”, the “soluble on expression in E. coli” value was “not soluble”. For “MDMSKASQEQFSMFMNLLCITVKDMPITEYYTSYILWEEVEFLEGVKDLLDPTSAFEDRRSSLYHHLGHNFASNCSLKDDNNVRDAHVVVEDHTKFDNYMYDQMTRKEWTSLHL”, the “soluble on expression in E. coli” value was “soluble”. In the case of “MSQNVYQFIDLQRVDPPKKPLKIRKIEFVEIYEPFSETQAKAQADRCLSCGNPYCEWKCPVHNYIPNWLKLANEGRIMEAADLAHQTNSLPEVCGRVCPQDRLCEGSCTLNDEFGAVTIGNIERYISDKAIAMGWKPDMSHVHPTGKRVAVIGAGPAGLACADVLARNGVQAVVFDRHPEIGGLLTFGIPAFKLEKEVMIKRRKIFSEMGIEFQLNTEVGKDITMEALLKDYDAVFLGVGTYQSMRGGLENEEANGVYDALPFLIANTKQLMGYEATAHEPYINMQGKRVVVLGGGDTAMDCVRSSIRQGATDVVCAYRRDEVNMPGSKREVKNAREEGVEFKFNLQPLSIEVNSNGKVCGVRMVRTQLGAPDAQGRRMAEQIPGSEHVLPADAVVMAFGFRPHSMEWLAAHDVKLDKQGRVIAPESTDNAFQTSNPKIFAGGDIVRGSDLVVTAIAEGRKAADGIMNYLEV”, the “soluble on expression in E. coli” value is reported as “not soluble”. In the case of “STSPEIASLSWGQMKVKGSNTTYKDCKVWPGGSRTWDWRETGTEHSPGVQPADVKEVVEKGVQTLVIGRGMSEALKVPSSTVEYLKKHGIDVRVLQTEQAVKEYNALVAQGVRVGGVFHSTC”, the “soluble on expression in E. coli” value is reported as “soluble”.
